In this experiment the target is free 17K‐apo(a) variant (purified recombinant apolipoprotein(a) with 17 KIV domains) (human). In words: co-IP.

Take “purified HCVcc, infectious hepatitis C virus particles (JFH1‐CS‐A4‐RLuc‐TM) (complex)”: the percent of HCV RNAs coimmunoprecipitated worked out at 39.9%.

The values above are taken from paper PMC5488163.
